Assay results: US5376640A, “Lipolytic enzyme inhibitors” (Nisshin Flour Milling Co., Ltd., priority 1989, dated 1994)
Like-named read-outs stand apart in the source and are kept apart here. Where a SMILES comes first, the peptide text is derived from it. Where no end group is shown, it is not given here.

How the values were obtained:
[1] = target: Porcine pancreatic lipase (porcine) (UniProt P00591)
[2] = target: T1, porcine pancreatic lipase (Sus scrofa, UniProt P00591); experiment: Assay of lipase inhibitory activity (olive oil emulsion with sodium cholate, Tris buffer pH 6.8); type: biochemical; settings: for Activity of porcine pancreatic lipase: peptide solution 1 mg/ml in distilled water, control = 100
T1 construct: purchased Sigma Co., Ltd
T1 sequence (P00591 1-450): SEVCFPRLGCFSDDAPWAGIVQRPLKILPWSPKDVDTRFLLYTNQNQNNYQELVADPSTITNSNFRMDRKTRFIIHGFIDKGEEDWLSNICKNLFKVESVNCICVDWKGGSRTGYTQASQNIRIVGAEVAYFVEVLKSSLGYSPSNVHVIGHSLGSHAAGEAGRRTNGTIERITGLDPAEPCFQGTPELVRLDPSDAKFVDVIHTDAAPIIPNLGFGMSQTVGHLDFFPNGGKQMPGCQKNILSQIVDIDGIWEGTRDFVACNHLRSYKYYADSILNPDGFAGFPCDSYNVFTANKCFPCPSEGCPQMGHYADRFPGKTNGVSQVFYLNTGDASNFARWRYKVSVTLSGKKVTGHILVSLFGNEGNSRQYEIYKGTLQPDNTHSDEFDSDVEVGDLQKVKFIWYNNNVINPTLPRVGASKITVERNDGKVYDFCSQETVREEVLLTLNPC
Protocol: 250 mg of an olive oil, 21.5 mg of sodium cholate as a bile acid component and 30 mg of phosphatidylcholine were added to 5 ml of a 200 mM Tris buffer solution at pH 6.8 (called hereafter "Tris buffer").
(§1) The mixture was ultrasonicated to prepare an olive oil emulsion.
Porcine pancreatic lipase (manufactured by Sigma Co., Ltd.) was added to Tris buffer to prepare an enzyme solution containing 100 units porcine pancreatic lipase per ml.
(§2) 100 μl of an olive oil emulsion as prepared above were used as a substrate.
(§3) 50 μl of Tris buffer was added to the substrate to prepare an emulsion for control sample. Each 50 ml of the protein(polypeptide)-containing solutions as prepared above was added to 100 μl of the substrate to prepare six emulsions for test sample. All of the emulsions were incubated for 5 min. To each of those emulsions was added 50 μl of the lipase solution as prepared above. The resulting mixture was incubated at 37° C. for one hour, subsequently to which were added 3 ml of the same extraction solvent as used in Example 1. After being shaken for 5 min., the mixture was centrifuged at 3000 rpm for 5 min. The upper layer was removed with an aspirator and to the remaining solution was added 1 ml of the same copper reagent as used in Example 1. The mixture was shaken for 5 min. and centrifuged at 3000 rpm for 5 min. 0.5 ml of a solution was taken from the upper layer and to the solution was added 0.5 ml of the same color developing agent as used in Example 1.
The resulting solutions for control and test samples were measured for the absorbance at 480 nm (A480) using a photometer to determine the amount of the free fatty acids as formed, i.e., the activity of the porcine pancreatic lipase. […]
Lysine oligomers having a degree of polymerization of 2-5 as shown in Table 6 below were prepared using a peptide synthesizer (Biolynx 4170, LKB-Pharmacia Co., Ltd.). Each of the oligomers was purified by high performance liquid chromatography. Each of the purified oligomers was added to distilled water to make up to 1 μmol/ml. […] lysine oligomer-containing solutions were thus prepared.
50 μl of Tris buffer was added to the substrate to prepare an emulsion for control sample. Each 50 μof the lysine oligomer-containing solutions as prepared above was added to 100 μl of the substrate to prepare six emulsions for test sample. After incubating the emulsions for 5 min., there was added 50 μl of a lipase solution containing 100 units of porcine pancreatic lipase per ml as prepared in the same way as in Example 4. The resulting mixture was incubated at 37 ° C. for one hour.

[3] = target: cholesterol esterase isolated from porcine pancreas (Sus scrofa, UniProt A0A286ZKB1); settings: protein solution 4 mg/ml; % of control Abs480; sodium cholate present; 37° C., one hour
cholesterol esterase isolated from porcine pancreas, sequence (A0A286ZKB1 1-682): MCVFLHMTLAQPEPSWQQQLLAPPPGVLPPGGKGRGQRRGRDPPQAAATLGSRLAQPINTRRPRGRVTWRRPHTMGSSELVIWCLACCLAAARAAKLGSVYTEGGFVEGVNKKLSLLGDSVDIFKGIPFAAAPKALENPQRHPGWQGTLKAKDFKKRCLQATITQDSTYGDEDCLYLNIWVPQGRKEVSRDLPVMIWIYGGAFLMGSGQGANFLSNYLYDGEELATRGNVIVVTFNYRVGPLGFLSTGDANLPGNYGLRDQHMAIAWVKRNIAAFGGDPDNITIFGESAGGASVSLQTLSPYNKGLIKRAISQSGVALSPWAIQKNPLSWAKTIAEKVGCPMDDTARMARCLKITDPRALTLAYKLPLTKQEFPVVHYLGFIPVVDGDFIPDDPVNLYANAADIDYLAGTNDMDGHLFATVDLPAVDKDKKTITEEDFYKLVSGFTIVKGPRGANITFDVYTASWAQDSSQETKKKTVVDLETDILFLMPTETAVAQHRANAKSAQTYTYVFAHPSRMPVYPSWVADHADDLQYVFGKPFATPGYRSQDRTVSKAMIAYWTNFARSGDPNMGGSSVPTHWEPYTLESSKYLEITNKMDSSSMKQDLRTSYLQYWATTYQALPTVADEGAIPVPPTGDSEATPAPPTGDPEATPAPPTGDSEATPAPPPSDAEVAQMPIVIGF
Protocol: as §2
as §3, with “potassium phosphate” for “Tris”, “Each 50 ml of the protein(polypeptide)-containing solutions as prepared above was added to 100 μl of the substrate to prepare six emulsions for test sample.” left out

[4] = target: T1, porcine pancreatic lipase; experiment: Assay of lipase inhibitory activity of proteins (olive oil emulsion with sodium cholate, potassium phosphate buffer pH 6.8); type: biochemical; settings: for Activity of porcine pancreatic lipase (%): protein solution 4 mg/ml, % of control Abs480, sodium cholate present, 37° C., one hour; for Activity of porcine pancreatic lipase: % of control
Protocol: 250 mg of an olive oil, 21.5 mg of sodium cholate as a bile acid component and 30 mg of phosphatidylcholine were added to 5 ml of a 300 mM potassium phosphate buffer solution at pH 6.8 (called hereafter "potassium phosphate buffer").
as §1
Porcine pancreatic lipase (manufactured by Sigma Co., Ltd.) was added to the potassium phosphate buffer solution to prepare a lipase solution containing 100 units porcine pancreatic lipase per ml.
as §2
50 μl of potassium phosphate buffer was added to the substrate to prepare an emulsion for control sample. Each 50 μl of the protein(polypeptide)-containing solutions as prepared above was added to 100 μl of the substrate to prepare six emulsions for test samples. All of the emulsions were incubated for 5 min. To each of those emulsions was added 50 μl of the lipase solution as prepared above. The resulting mixture was incubated at 37° C. for one hour, subsequently to which were added 3 ml of an extraction solvent (chloroform:methanol:n-heptane=49:1:49). After being shaken for 5 min., the mixture was centrifuged at 3000 rpm for 5 min. The upper layer was removed with an aspirator and to the remaining solution was added 1 ml of a copper reagent (0.45M triethanol amine, 0.05N acetic acid, 3,4% copper sulfate pentahydrate and 20% sodium chloride). The mixture was shaken for 5 min. and centrifuged at 3000 rpm for 5 min. 0.5 ml of a solution was taken from the upper layer and to the solution was added 0.5 ml of a color developing agent (a solution of 0.1% bathocuproine and 0.05% butyl hydroxyanisole in the above extraction solvent).
The resulting solutions for control and test samples were measured for the absorbance at 480 nm (A480) using a photometer to determine the amount of the free fatty acids as formed, i.e., the activity of the porcine pancreatic lipase.

[5] = target: Porcine pancreatic lipase (porcine) (UniProt P00591); remark: listed apart in the source
[6] = target: Porcine pancreatic lipase (porcine) (UniProt P00591); remark: listed apart in the source
[7] = target: Porcine pancreatic lipase (porcine) (UniProt P00591); remark: listed apart in the source
[8] = target: Cholesterol esterase isolated from porcine pancreas (porcine)
[9] = target: Porcine pancreatic lipase (porcine) (UniProt P00591); remark: listed apart in the source
[10] = target: Porcine pancreatic lipase (porcine) (UniProt P00591); remark: listed apart in the source
[11] = lysine oligomer solution 1 μmol/ml, % of control
[12] = solution of 1 mg in 10 ml Tris buffer, % of control Abs480, sodium cholate present

α-(L-lysine)2 (peptide) was tested, and the Activity of porcine pancreatic lipase (%) [1] was 104 % of control.

`NCCCC[C@H](N)C(=O)NCCCC[C@H](N)C(=O)NCCCC[C@H](N)C(=O)O` [ε-(L-lysine)3] was tested, and the “Activity of porcine pancreatic lipase (%)” value [2, 11] was 89.0%.

“β-Lactoglobulin: β-lactoglobulin (L0130, Sigma Co., Ltd.), non-basic comparison protein [reference compound]” was tested, and the “Activity of cholesterol esterase (%)” value [3] was 89.9% and the “Activity of porcine pancreatic lipase (%)” value [4] was 103.9%.

With α-poly-D-lysine hydrobromide the “Activity of porcine pancreatic lipase” value [2] was 1.1.

KKKKK [α-(L-lysine)5] was tested, and the “Activity of porcine pancreatic lipase (%)” value [2, 11] was 2.1%.

For Histone H3 (H4380, Sigma Co., Ltd.), the Activity of porcine pancreatic lipase (%), Tris buffer [5] was 2.3 % of control.

In the case of ε-(L-lysine)3 (peptide), the Activity of porcine pancreatic lipase (%) [1] is reported as 89 % of control.

In the case of “α-poly-L-lysine (3075, Peptide Research Co., Ltd.)”, the Activity of porcine pancreatic lipase (%), Tris buffer [5] is reported as 6.9 % of control and the Activity of porcine pancreatic lipase (Example 6, 1 mg/ml solution) [6] is reported as 1.6 % of control.

In the case of ε-(L-lysine)4 (SEQ ID NO: 6) (peptide), the Activity of porcine pancreatic lipase (%) [1] is reported as 53.8 % of control.

`NCCCC[C@H](NC(=O)[C@H](CCCCN)NC(=O)[C@H](CCCCN)NC(=O)[C@@H](N)CCCCN)C(=O)O` [α-(L-lysine)4] (H-KKKK-OH) was tested, and the “Activity of porcine pancreatic lipase (%)” value [2, 11] was 103.8%.

In the case of “α-poly-D-lysine hydrobromide (P7886, Sigma Co., Ltd.) (peptide)”, the Activity of porcine pancreatic lipase (Example 6, 1 mg/ml solution) [6] is reported as 1.1 % of control.

With ε-(L-lysine)5 (SEQ ID NO: 7) (peptide) the Activity of porcine pancreatic lipase (%) [1] was 3.1 % of control.

“β-Purothionin: purified β-purothionin (SEQ ID NO:3) isolated from the crude wheat purothionin mixture; misprinted α-Purothionin in Table 3 (KSCCKSTLGRNCYNLCRARGAQKLCANVCRCKLTSGLSCPKDFPK)” was tested, and the “Activity of porcine pancreatic lipase (%)” value [2, 12] was 1.3%, the “Activity of porcine pancreatic lipase” value ([4]; concentration of 0.04 mg/ml, separate experiment) was 5.2% and the “Activity of porcine pancreatic lipase (%)” value [4] was 0%. For the same molecule, the “Activity of porcine pancreatic lipase” value ([4]; solution diluted to protein concentration of 0.2 mg/ml) was 0%.

In the case of “β-lactoglobulin (L0130, Sigma Co., Ltd.) (from UniProt P02754)”, the Activity of porcine pancreatic lipase (%) [7] is reported as 104 % of control and the Activity of cholesterol esterase (%) [8] is reported as 89.9 % of control.

For β-purothionin (SEQ ID NO:3) (peptide), the Activity of porcine pancreatic lipase (%), Tris buffer [5] was 1.3 % of control, the Activity of porcine pancreatic lipase, separate experiment at 0.04 mg/ml [9] was 5.2% and the Activity of porcine pancreatic lipase (%) [7] was 0 % of control. For the same molecule, the Activity of porcine pancreatic lipase, solution diluted to 0.2 mg/ml [10] was 0%.

For “Ovalbumin (A5503, Sigma Co., Ltd.) (from UniProt P01012)”, the Activity of porcine pancreatic lipase (%) [7] was 107 % of control and the Activity of cholesterol esterase (%) [8] was 93.6 % of control.

With Protamine the “Activity of porcine pancreatic lipase (%)” value [2, 12] was 1.3%.

With poly-L-arginine the “Activity of porcine pancreatic lipase (%)” value [2, 12] was 16.5%.

In the case of “Protamine (P4005, Sigma Co., Ltd., U.S.A.)”, the Activity of porcine pancreatic lipase (%), Tris buffer [5] is reported as 1.3 % of control.

“Bovine serum albumin (A7030, Sigma Co., Ltd., U.S.A.) (from UniProt P02769)” was tested, and the Activity of porcine pancreatic lipase (%) [7] was 105 % of control and the Activity of cholesterol esterase (%) [8] was 120 % of control.

α2-purothionin (SEQ ID NO:2) (peptide) was tested, and the Activity of porcine pancreatic lipase (%) [7] was 0 % of control.

For `NCCCC[C@H](NC(=O)[C@@H](N)CCCCN)C(=O)O` [α-(L-lysine)2], the “Activity of porcine pancreatic lipase (%)” value [2, 11] was 103.6%.

With Histone H2A (H6881, Sigma Co., Ltd.) the Activity of porcine pancreatic lipase (%), Tris buffer [5] was 3.7 % of control.

With `NCCCC[C@H](N)C(=O)NCCCC[C@H](N)C(=O)NCCCC[C@H](N)C(=O)NCCCC[C@H](N)C(=O)NCCCC[C@H](N)C(=O)O` [ε-(L-lysine)5] the “Activity of porcine pancreatic lipase (%)” value [2, 11] was 3.1%.

With α-poly-L-lysine hydrochloride the “Activity of porcine pancreatic lipase” value [2] was 1.6 and the “Activity of porcine pancreatic lipase (%)” value [2, 12] was 6.9%.

With “Poly-L-arginine (P3892, Sigma Co., Ltd.) (peptide)” the Activity of porcine pancreatic lipase (%), Tris buffer [5] was 16.5 % of control.

For `NCCCC[C@H](N)C(=O)NCCCC[C@H](N)C(=O)NCCCC[C@H](N)C(=O)NCCCC[C@H](N)C(=O)O` [ε-(L-lysine)4], the “Activity of porcine pancreatic lipase (%)” value [2, 11] was 53.8%.

With KKKK [α-(L-lysine)4 (SEQ ID NO: 4)] the Activity of porcine pancreatic lipase (%) [1] was 104 % of control.

For KKKKK [α-(L-lysine)5 (SEQ ID NO: 5)], the Activity of porcine pancreatic lipase (%) [1] was 2.1 % of control.

B1: Ovalbumin: ovalbumin (A5503, Sigma Co., Ltd.), non-basic comparison protein (protein, UniProt P01012 2-386, looked up)
Ovalbumin: GSIGAASMEFCFDVFKELKVHHANENIFYCPIAIMSALAMVYLGAKDSTRTQINKVVRFDKLPGFGDSIEAQCGTSVNVHSSLRDILNQITKPNDVYSFSLASRLYAEERYPILPEYLQCVKELYRGGLEPINFQTAADQARELINSWVESQTNGIIRNVLQPSSVDSQTAMVLVNAIVFKGLWEKAFKDEDTQAMPFRVTEQESKPVQMMYQIGLFRVASMASEKMKILELPFASGTMSMLVLLPDEVSGLEQLESIINFEKLTEWTSSNVMEERKIKVYLPRMKMEEKYNLTSVLMAMGITDVFSSSANLSGISSAESLKISQAVHAAHAEINEAGREVVGSAEAGVDAASVSEEFRADHPFLFCIKHIATNAVLFFGRCVSP
In the case of B1, the “Activity of cholesterol esterase (%)” value [3] is reported as 93.6% and the “Activity of porcine pancreatic lipase (%)” value [4] is reported as 107.0%.
